The text below walks through data of the RNAGym collection of RNA variant scans (doi:10.7554/elife.80360).

To fix the notation:
B1: Hammerhead Ribozyme (parent)
chain: ACCGGAUGUGCUUUCCGGUCUGAUGAGUCCGUGAGGACGAAACAG

The variants in this data set derive from B1. Nature of the data set: self-cleavage, relative activity (ratio to wild type); higher = more cleavage; co-transcriptional.
For U13A C38A, the self-cleavage is 0.808. The value for U13A C38U was 1.5.

On to U13A C38G, for which the self-cleavage amounted to 0.728. The value for U13A U24G was 1.99. For U13A U24A, the self-cleavage was 1.09. For U13A U24C, the self-cleavage was found to be 1.07. As for U13C A23U, the self-cleavage is 0.237. In the case of U13C A23G, the self-cleavage amounted to 0.419. The value for U13C A23C was 0.373; that for U13A A40C was 0.711. The value for U13A A40U was 0.379.

On to U13A A40G, for which the self-cleavage was found to be 0.287. As to U12G G27C, the self-cleavage amounted to 0.433. The value for U12G G27A was 0.914; that for U12G G27U was 0.411.

On to U12G G22A, for which the self-cleavage was 0.338. The value for U12G G22U was 0.37; that for U12G G22C was 0.326.

As to U12G G36A, the self-cleavage worked out at 0.518. The value for U12G G36C was 0.679. Consider U12G G36U, for which the self-cleavage was 0.471. The value for U13A C30A was 1.31; that for U13A C30U was 1.46; that for U13A C30G was 0.947. The value for U13A G18C was 0.777; that for U13A G18A was 1.17. As for U13A G18U, the self-cleavage turned out to be 1.23. On to U13A A34U, for which the self-cleavage was found to be 1.46. The value for U13A A34G was 1.04; that for U13A A34C was 1.5. The value for U13A G35U was 0.727; that for U13A G35A was 0.89.

As for U13A G35C, the self-cleavage came to 0.799. The value for U12G U21A was 0.455; that for U12G U21C was 0.807; that for U12G U21G was 0.334. The value for U12G U24C was 1.18; that for U12G U24G was 0.795. In the case of U12G U24A, the self-cleavage came out at 1.13. The value for U13A C16A was 1.49; that for U13A C16G was 1.27. The value for U13A C16U was 1.02. The value for U12G U13G was 0.848; that for U12G U13A was 1.25; that for U12G U13C was 0.879.

On to U13A G27C, for which the self-cleavage came to 0.823. The value for U13A G27U was 0.53; that for U13A G27A was 0.873; that for U13A A37C was 1.21.

U13A A37U: the self-cleavage is 0.908. The value for U13A A37G was 1.15; that for U13A A44U was 0.749; that for U13A A44C was 0.619.

For U13A A44G, the self-cleavage came to 1.8. The value for U12G G33C was 0.972. With U12G G33A, the self-cleavage came to 1.02. As for U12G G33U, the self-cleavage was 1.2. In the case of U13A U21A, the self-cleavage came to 0.707.

For U13A U21C, the self-cleavage came out at 0.908. The value for U13A U21G was 0.602; that for U13A G31U was 1.39; that for U13A G31A was 1.46.

Consider U13A G31C, for which the self-cleavage was found to be 1.39. The value for U12G G35C was 0.444. The value for U12G G35A was 0.674; that for U12G G35U was 0.583. Regarding U13A G25U, the self-cleavage worked out at 0.277. The value for U13A G25C was 0.327; that for U13A G25A was 0.326; that for U13A A42C was 0.314. On to U13A A42G, for which the self-cleavage is 0.344. The value for U13A A42U was 0.339. The value for U13A U19G was 0.425. Take U13A U19A: the self-cleavage was 0.36. Turning to U13A U19C, the self-cleavage was 0.898. For the variant U13A G39U, the self-cleavage was 0.339. The value for U13A G39A was 0.317. The value for U13A G39C was 0.341; that for U12G G31A was 1.2. The value for U12G G31U was 1.11; that for U12G G31C was 1.09; that for U12G G17U was 0.943. On to U12G U28G, for which the self-cleavage came out at 0.685. For U12G U28C, the self-cleavage is 1.02. The value for U12G U28A was 0.666; that for U12G G45C was 0.676. The value for U12G G45U was 0.716; that for U12G G45A was 0.719. As to U13A C15A, the self-cleavage came to 0.926. The value for U13A C15U was 0.907; that for U13A C15G was 0.895; that for U13A C43A was 0.254. With U13A C43G, the self-cleavage amounted to 0.335. The value for U13A C43U was 0.614. The value for U13A U32A was 1.31; that for U13A U32C was 1.24; that for U13A U32G was 1.3.

As for U13C A26C, the self-cleavage was determined as 0.782. The value for U13C A26G was 0.313; that for U13C A26U was 0.622. The value for U12G G39U was 0.319; that for U12G G39A was 0.4. The value for U12G G39C was 0.424. With U12G U19G, the self-cleavage was found to be 0.509. Take U12G U19A: the self-cleavage was 0.299. The value for U12G U19C was 0.524; that for U13A G33A was 1.29; that for U13A G33U was 1.46. The value for U13A G33C was 1.25; that for U13A U28C was 1.58. Take U13A U28G: the self-cleavage is 1.4. Consider U13A U28A, for which the self-cleavage came out at 1.1. The value for U13A was 1.31; that for U13C was 1.12; that for U13A C29A was 0.759.

As to U13A C29G, the self-cleavage amounted to 0.922. The value for U13A C29U was 0.941. With U13A G45A, the self-cleavage was 0.883.

As for U13A G45C, the self-cleavage is 0.808.

In the case of U13A G45U, the self-cleavage is 1.02. The value for U13C A40U was 0.277; that for U13C A40G was 0.465; that for U13C A40C was 0.725. U13C A41C: the self-cleavage was found to be 0.247. The value for U13C A41G was 0.394. Turning to U13A A26G, the self-cleavage is 0.327. The value for U13A A26U was 0.976; that for U13A A26C was 0.564; that for U13A A41C was 0.368. For the variant U13A A41G, the self-cleavage stood at 0.311. The value for U13A A41U was 0.355; that for U12G G18A was 0.583; that for U12G G18C was 0.61. The value for U12G G18U was 0.998; that for U13C A34C was 1.02; that for U13C A34G was 0.776. The value for U13C A34U was 1.12; that for U13A G17A was 1.16. Turning to U13A G17U, the self-cleavage amounted to 1.02.

In the case of U13A G17C, the self-cleavage was determined as 0.815. The value for U13A G36C was 1.03; that for U13A G36A was 0.732.

U13A G36U: the self-cleavage was 0.713.

U13A U14C: the self-cleavage stood at 0.548. The value for U13A U14G was 1.16. The value for U13A U14A was 1.15; that for U13A G22A was 0.298.

As for U13A G22U, the self-cleavage came out at 0.381. Take U13A G22C: the self-cleavage was found to be 0.312. The value for U13A A23G was 0.441.

Regarding U13A A23C, the self-cleavage turned out to be 0.503. The value for U13A A23U was 0.361; that for U12G U32C was 0.921; that for U12G U32A was 0.696. The value for U12G U32G was 0.813; that for U12G U14C was 0.677; that for U12G U14A was 0.832.

For U12G U14G, the self-cleavage came out at 0.961. The value for U13A C20A was 0.446; that for U13A C20U was 0.681; that for U13A C20G was 0.354. The value for U12G G25A was 0.316.

With U12G G25C, the self-cleavage came out at 0.337. The value for U12G G25U was 0.315. The value for U13C A37G was 1.26. Turning to U13C A37U, the self-cleavage is 0.482. The value for U13C A37C was 1.07.
